Experimental data taken from patent US20150203577A1 (Chugai, published 2015).
Substitutions are numbered along the chain they refer to.

T1: mouse FcγRIII (mouse, UniProt P08508 31-215)
T1 construct: also called mFcγRIII; mFcgRIII
T1 chain: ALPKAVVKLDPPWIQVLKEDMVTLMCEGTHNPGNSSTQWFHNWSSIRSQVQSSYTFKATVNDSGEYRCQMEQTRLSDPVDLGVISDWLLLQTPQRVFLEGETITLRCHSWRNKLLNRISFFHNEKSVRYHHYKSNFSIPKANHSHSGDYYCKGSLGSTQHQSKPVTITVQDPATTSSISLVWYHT

T2: mouse FcγRII (mouse, UniProt P08101 30-210)
T2 construct: also called mFcγRII; mFcgRII
T2 sequence: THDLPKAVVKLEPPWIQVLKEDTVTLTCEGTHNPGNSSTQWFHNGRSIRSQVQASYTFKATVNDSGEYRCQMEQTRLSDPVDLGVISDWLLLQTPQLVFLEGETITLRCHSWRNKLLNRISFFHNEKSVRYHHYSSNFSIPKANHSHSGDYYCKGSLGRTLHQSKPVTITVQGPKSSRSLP

T3: mouse FcγRII extracellular domain, C-terminally His-tagged (mouse, UniProt P08101 30-210)
T3 construct: the whole entry is named; also called mFcγRII; mFcgRII
T3 sequence: T2 sequence

T4: mouse FcγRIII extracellular domain, C-terminally His-tagged (mouse, UniProt P08508 31-215)
T4 construct: the whole entry is named; also called mFcγRIII; mFcgRIII
T4 chain: T1 chain

B1: H237-MB290/MRAL-k0 (antibody, mouse IgG1, kappa)
heavy: QVQLQESGPGLVKPSETLSLTCAVSGHSISHDHAWSWVRQPPGEGLEWIGFISYSGITNYNPSLQGRVTISRDNSKNTLYLQMNSLRAEDTAVYYCARSLARTTAMDYWGEGTLVTVSSAKTTPPSVYPLAPGSAAQTNSMVTLGCLVKGYFPEPVTVTWNSGSLSSGVHTFPAVLQSDLYTLSSSVTVPSSTWPSETVTCNVAHPASSTKVDKKIVPRDCGCKPCICTAPEVSDVFIFPPKPKDVLTITLTPKVTCVVVDISKDDPEVQFSWFVDDVEVHTAQTQPREEQFNSTFRSVSELPIMHQDWLNGKEFKCRVNSAAFPAPIEKTISKTKGRPKAPQVYTIPPPKEQMAKDKVSLTCMITDFFPEDITVEWQWNGQPAENYKNTQPIMDTDGSYFVYSKLNVQKSNWEAGNTFTCSVLHEGLHNHHTEKSLSHSPGK
light: not shown
notes: copies: 2 + 2
B2: MB293 (antibody, mouse IgG1, kappa)
heavy: B1 heavy with A230V, S234E
light: not shown
notes: copies: 2 + 2
B3: MB296 (antibody, mouse IgG1, kappa)
heavy: B1 heavy with A230V, S263A
light: not shown
notes: copies: 2 + 2
B4: H237-MB337/MRAL-k0 (antibody, mouse IgG1, kappa)
heavy: B1 heavy with T229E, S234E
light: not shown
notes: copies: 2 + 2
B5: H237-MB302/MRAL-k0 (antibody, mouse IgG1, kappa)
heavy: B1 heavy with T229E, A230V, S234E
light: not shown
notes: copies: 2 + 2
B6: MB299 (antibody, mouse IgG1, kappa)
heavy: B1 heavy with T229E
light: not shown
notes: copies: 2 + 2
B7: MB303 (antibody, mouse IgG1, kappa)
heavy: B1 heavy with T229E, A230V, V236E
light: not shown
notes: copies: 2 + 2
B8: MB304 (antibody, mouse IgG1, kappa)
heavy: B1 heavy with T229E, A230V, V236H
light: not shown
notes: copies: 2 + 2
B9: H237-MB305/MRAL-k0 (antibody, mouse IgG1, kappa)
heavy: B1 heavy with P231E
light: not shown
notes: copies: 2 + 2
B10: MB294 (antibody, mouse IgG1, kappa)
heavy: B1 heavy with A230V, V236E
light: not shown
notes: copies: 2 + 2
B11: MB306 (antibody, mouse IgG1, kappa)
heavy: B1 heavy with S234E
light: not shown
notes: copies: 2 + 2
B12: MB295 (antibody, mouse IgG1, kappa)
heavy: B1 heavy with A230V, V236H
light: not shown
notes: copies: 2 + 2
B13: MB301 (antibody, mouse IgG1, kappa)
heavy: B1 heavy with T229E, A230V, P231E
light: not shown
notes: copies: 2 + 2
B14: MB300 (antibody, mouse IgG1, kappa)
heavy: B1 heavy with T229E, A230D
light: not shown
notes: copies: 2 + 2
B15: MB292 (antibody, mouse IgG1, kappa)
heavy: B1 heavy with A230V, P231E
light: not shown
notes: copies: 2 + 2
B16: MB289 (antibody, mouse IgG1, kappa)
heavy: B1 heavy with T229E, A230V
light: not shown
notes: copies: 2 + 2
B17: MB291 (antibody, mouse IgG1, kappa)
heavy: B1 heavy with A230D
light: not shown
notes: copies: 2 + 2
B18: H237-MB499/MRAL-k0 (antibody, mouse IgG1, kappa)
heavy: B1 heavy with T229E, A230P, P231N, S234E, S294M, N320D, K330R
light: not shown
notes: copies: 2 + 2
B19: H237-MB496/MRAL-k0 (antibody, mouse IgG1, kappa)
heavy: B1 heavy with T229E, A230P, P231N, S234E, S294M, K330R
light: not shown
notes: copies: 2 + 2
B20: H237-MB498/MRAL-k0 (antibody, mouse IgG1, kappa)
heavy: B1 heavy with T229E, A230P, P231N, S234E, S294L, N320D, K330R
light: not shown
notes: copies: 2 + 2
B21: H237-MB497/MRAL-k0 (antibody, mouse IgG1, kappa)
heavy: B1 heavy with T229E, A230P, P231N, S234E, N320D, K330R
light: not shown
notes: copies: 2 + 2

Molecular target: T1, mouse FcγRIII
Experiment: SPR Biacore T200, KD ratio
Description: (§1) The antibody H chain variable region used was the variable region H237 (SEQ ID NO: 1) of the H chain VH3-IgG1 of the anti-IL-6 receptor antibody Fv4-IgG1 described in WO2009/125825. The antibody L chain commonly used was the L chain MRAL-k0 (SEQ ID NO: 2) of the anti-IL-6 receptor antibody tocilizumab. […] The resulting variant group was designated as MB110 variants. These variants were expressed and purified by the method of Reference Example 1 and evaluated for their binding to mFcγRII and mFcγRIII by the method of Reference Example 2 using Biacore T200.
(§2) Each altered antibody was analyzed for its interaction with each Fcγ receptor prepared above using Biacore T100 (GE Healthcare Japan Corp.), Biacore T200 (GE Healthcare Japan Corp.), Biacore A100, or Biacore 4000. The running buffer used was HBS-EP+ (GE Healthcare Japan Corp.). The assay temperature was set to 25° C. The sensor chips used were chips prepared by immobilizing Protein L (ACTIGEN or BioVision) onto Series S Sensor Chip CM5 (GE Healthcare Japan Corp.) or Series S Sensor Chip CM4 (GE Healthcare Japan Corp.) by the amine coupling method.
(§3) In order to calculate the KD value of each altered antibody for FcγR, kinetic analysis was conducted according to the following method: first, the antibody of interest was captured onto any of these chips and allowed to interact with mFcγR diluted with a running buffer. For the obtained sensorgram, the assay results were globally fit into the 1:1 Langmuir binding model using Biacore Evaluation Software to calculate an association rate constant ka (L/mol/s) and a dissociation rate constant kd (1/s). From these values, the dissociation constant KD (mol/L) was calculated.

Binder	Relative mFcγRIII-binding activity (MB110 = 1) [fold]	relative mFcγRIII-binding activity (mIgG1 = 1) [fold]
B1	1.37	5.5
B2	1.01	4.1
B3	1.39	5.6
B4	1.15	4.6
B5	1.11	4.5
B6	1.61	6.5
B7	0.32	1.3
B8	0.5	2
B9	0.94	3.8
B10	0.47	1.9
B11	1.05	4.2
B12	0.42	1.7
B13	1.16	4.6
B14	1.41	5.7
B15	1.02	4.1
B16	1.23	4.9
B17	1.66	6.7

Molecular target: T2, mouse FcγRII
Experiment: SPR Biacore T200, KD ratio
Description: as §1, §2, §3

Binder	Relative mFcγRII-binding activity (MB110 = 1) [fold]	relative mFcγRII-binding activity (mIgG1 = 1) [fold]
B1	2.16	26.5
B2	3.25	39.9
B3	1.71	21
B4	5.98	73.4
B5	4.37	53.7
B6	4.96	60.8
B7	0.64	7.8
B8	1.11	13.7
B9	2.12	26
B10	0.62	7.6
B11	5.36	65.8
B12	0.62	7.6
B13	3.52	43.2
B14	4.25	52.3
B15	2.82	34.6
B16	3.57	43.8
B17	3.47	42.6

Molecular target: T3, mouse FcγRII extracellular domain, …
Experiment: SPR Biacore T200, KD ratio

Binder	relative mFcγRII-binding activity (MB390 = 1) [fold]	relative mFcγRII-binding activity (mIgG1 = 1) [fold]
B18	1.9	992
B19	1.7	884
B20	6.4	3340
B21	1.48	773

Molecular target: T4, mouse FcγRIII extracellular domain, …
Experiment: SPR Biacore T200, KD ratio

Binder	relative mFcγRIII-binding activity (MB390 = 1) [fold]	relative mFcγRIII-binding activity (mIgG1 = 1) [fold]
B18	2.03	24.2
B19	1.71	20.3
B20	7.15	85.1
B21	1.32	15.7
